The values below are quoted from earlier work in publication PMC10925690.

Data set [1] concerns the target FcγRIIIa V158 (Homo sapiens) (UniProt P08637). The experiment in a line: SPR. The conditions noted are these: cited from earlier work.
The target of data set [2] is FcγRIIIa F158 (Homo sapiens) (UniProt P08637). Nature of the data set: SPR. The note with it: cited from earlier work.

pKd: −log10 of the molar value.

Sequence of FcγRIIIa V158 (Homo sapiens) (P08637 17-254): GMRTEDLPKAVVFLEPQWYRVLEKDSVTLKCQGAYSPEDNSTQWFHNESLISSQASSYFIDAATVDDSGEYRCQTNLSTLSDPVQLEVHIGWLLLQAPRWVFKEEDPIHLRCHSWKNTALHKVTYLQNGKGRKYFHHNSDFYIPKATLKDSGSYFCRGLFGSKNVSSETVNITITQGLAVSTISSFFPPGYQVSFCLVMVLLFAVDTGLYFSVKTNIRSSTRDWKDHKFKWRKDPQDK
Sequence of FcγRIIIa F158 (Homo sapiens) (P08637 17-254): as above

Regarding IgG1 Fc Fc (from UniProt P01857), the pKd in data set [1] is 6.40; in data set [2], 5.60.

As a reminder, the pKd is the negative decadic logarithm of the Kd, by convention in mol/L.
